Laboratory results from the supplement of paper PMC10724198.
± gives the standard deviation of the averaged measurements.

Test system: Saccharomyces cerevisiae
Assay: protein stability index of tFT-peptide fusion (C-terminal peptide) (PSI (0-1 scale)); higher = more stable (slower turnover)
Conditions: genetic background: wild type; temperature: 30 C
Protocol: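 Multiplexed protein stability (MPS) profiling in S. cerevisiae. Random 12-aa peptides (tFT-X12 library) are fused to the C-terminus of a sfGFP-mCherry tandem fluorescent timer, after mCherry and a GGGS linker. Cells are FACS-sorted into 8 mCherry/sfGFP bins and deep-sequenced. The protein stability index (PSI) is the read-weighted bin average, scaled from 0 (unstable) to 1 (stable). Only peptides with >10 reads are reported; cells were grown at 30 °C in SC-His with glucose.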
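Further: PSI is a weighted mean of sequencing reads over stability bins, variants kept only with over 10 reads, mCherry proximal and sfGFP distal, peptide attached via GGGS linker.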

| Sequence | protein stability index |
| --- | --- |
| EPNEKEKNKEVK | 0.704 ± 0.0079 |
| EPPLPEPPLSRS | 0.705 ± 0.023 |
| EQDDGARMIRRV | 0.683 ± 0.027 |
| EQDLSTKVKRST | 0.65 ± 0.12 |
| ERGAEGKKEPEK | 0.6534 ± 0.0061 |
| ERGGGRRRLSNA | 0.656 ± 0.062 |
| ERGRKGGAGARD | 0.6439 ± 0.0047 |
| ERINFSRRDFDC | 0.805 ± 0.059 |
| ERKNRKIRREKK | 0.774 ± 0.16 |
| ERLLLGLNRRLG | 0.643 ± 0.055 |
| ERLLMLSGLRRA | 0.779 ± 0.1 |
| ERLRLVPRKGLL | 0.714 ± 0.048 |
| ERLRSDSLSYDI | 0.714 ± 0.052 |
| ERSWQEKGVVRG | 0.699 ± 0.06 |
| ERVGLISSRRGC | 0.696 ± 0.014 |
| ERYRDVPVTSNR | 0.724 ± 0.013 |
| ESALPFLYSLSG | 0.703 ± 0.021 |
| ESEGSGVGACGG | 0.681 ± 0.02 |
| ESGPQWLGTFVT | 0.733 ± 0.0094 |
| ESGTVINKNSNK | 0.6661 ± 0.0054 |
| ESQGYGSQAKLA | 0.694 ± 0.028 |
| ESVPPILGQDPL | 0.773 ± 0.035 |
| ETGMSHHINRIW | 0.752 ± 0.054 |
| ETKKEETKRWRR | 0.6789 ± 0.0025 |
| ETVFESFEVKCG | 0.68 ± 0.022 |
| ETVRPYSPMRPG | 0.674 ± 0.016 |

| Sequence | protein stability index |
| --- | --- |
| EVCLTLTTADGH | 0.68826 ± 0.00011 |
| EVEKKKKKKNNK | 0.663 ± 0.04 |
| EVGTSGTWPGSV | 0.714 ± 0.013 |
| EVLLVHWINPNA | 0.687 ± 0.047 |
| EVMGGANDCGVV | 0.689 ± 0.012 |
| EVRLGKDKANRI | 0.691 ± 0.067 |
| EVRSDSFFKCEG | 0.6606 ± 0.0046 |
| EVRTRSSRIHRI | 0.709 ± 0.082 |
| EVYAGGESDVMS | 0.637 ± 0.029 |
| EWCGSLVVWTGG | 0.668 ± 0.018 |
| EWGKCGRGLYGC | 0.666 ± 0.033 |
| EWPVGLLREGLG | 0.6177 ± 0.0016 |
| EWVKFCFPIVQS | 0.651 ± 0.048 |
| EYKIKSIERRKK | 0.73 ± 0.04 |
| EYQGARAAGQSL | 0.678 ± 0.02 |
| FACVLVLFPFFL | 0.641 ± 0.099 |
| FAFWGGHSWLSC | 0.791 ± 0.035 |
| FAGNRDQEEERK | 0.706 ± 0.022 |
| FALPSASHFPVP | 0.7289 ± 0.0046 |
| FAPRRDPMQVQY | 0.6744 ± 0.0032 |
| FASIESVENIEM | 0.709 ± 0.07 |
| FAVLGGGVGGGG | 0.683 ± 0.043 |
| FCCVAPLALPRM | 0.686 ± 0.013 |
| FCFLAFLKTPKS | 0.58 ± 0.038 |
| FCPEGGYSVFYL | 0.719 ± 0.019 |
| FCPPMPSVIALH | 0.649 ± 0.024 |

| Sequence | protein stability index |
| --- | --- |
| FCRFCEFIFIFL | 0.499 ± 0.056 |
| FCSCLCGGEFVR | 0.69 ± 0.03 |
| FCSPPTLPPSPS | 0.732 ± 0.024 |
| FCVFVGSSLVGF | 0.659 ± 0.019 |
| FCVQRWWGEGGH | 0.6176 ± 0.0017 |
| FDFISHLYWSIV | 0.582 ± 0.011 |
| FDLPPCVPRARP | 0.767 ± 0.099 |
| FDLTFPPPPLPF | 0.719 ± 0.052 |
| FDPTGPIGMRPT | 0.653 ± 0.0017 |
| FDVLGPRVVSWV | 0.633 ± 0.093 |
| FEAVDSLFMLVL | 0.686 ± 0.034 |
| FEFGGGIRGSLG | 0.679 ± 0.048 |
| FEIVARTYNVDT | 0.666 ± 0.023 |
| FESRGEPPDIQV | 0.668 ± 0.049 |
| FESTIKNINNSI | 0.714 ± 0.011 |
| FFAFLLRSPSTS | 0.711 ± 0.064 |
| FFFFPLLSVPDR | 0.6101 ± 0.0026 |
| FFFGFFSVLSLG | 0.606 ± 0.089 |
| FFFPGLLVPLFP | 0.727 ± 0.025 |
| FFLPPPPPPPPL | 0.677 ± 0.015 |
| FFLPTLQLTPYL | 0.795 ± 0.19 |
| FFMPRCCSLALE | 0.644 ± 0.047 |
| FFSHSAPAPFPL | 0.692 ± 0.017 |
| FFVFFPLGGFWL | 0.668 ± 0.085 |
| FFVGFASLRLVL | 0.5517 ± 0.0046 |
| FFVVAPSPSPRL | 0.761 ± 0.0073 |

| Sequence | protein stability index |
| --- | --- |
| FFYYPSFLPSPL | 0.685 ± 0.011 |
| FGFIEGKRLGIT | 0.62 ± 0.041 |
| FGFRLFLPSFSA | 0.6433 ± 0.0029 |
| FGGGGGGGLLWC | 0.739 ± 0.071 |
| FGGLLFTRFGWE | 0.802 ± 0.056 |
| FGLARGMFFLTV | 0.629 ± 0.056 |
| FGLCRSLESRQF | 0.6606 ± 0.0026 |
| FGLPPGNWSSGH | 0.782 ± 0.028 |
| FGNVLISMRNRL | 0.834 ± 0.11 |
| FGPLFSEDTRKV | 0.703 ± 0.076 |
| FGRFVLSCFDRK | 0.661 ± 0.019 |
| FGRGGGGFLTLV | 0.647 ± 0.0034 |
| FGSCVVVRRVGF | 0.619 ± 0.056 |
| FGVHCSSPTSGG | 0.6684 ± 0.0013 |
| FGVTRSPLDPLF | 0.665 ± 0.043 |
| FGWEGGEEMAGG | 0.788 ± 0.0097 |
| FHGGRGLLLGMN | 0.649 ± 0.077 |
| FIPPPLALPFYS | 0.674 ± 0.056 |
| FKCWAGVRCGMV | 0.611 ± 0.013 |
| FKLVPCLGPSHF | 0.741 ± 0.047 |
| FLAGGRFLCIVV | 0.593 ± 0.098 |
| FLCPGELSYFCV | 0.666 ± 0.03 |
| FLFRSFACALPS | 0.522 ± 0.0081 |
| FLFSYIEGSPNP | 0.721 ± 0.073 |
| FLFWFLFFCSSR | 0.49 ± 0.022 |
| FLGGVGGLVLIG | 0.6672 ± 0.0047 |

| Sequence | protein stability index |
| --- | --- |
| FLHPLTPSPPLA | 0.711 ± 0.096 |
| FLHPSPIPPPLP | 0.7092 ± 0.0012 |
| FLLKKVLCINWQ | 0.545 ± 0.0028 |
| FLLLSAGERCWD | 0.694 ± 0.085 |
| FLLPLKCRSTTN | 0.712 ± 0.046 |
| FLLPPASLSLPP | 0.7074 ± 0.0034 |
| FLPFRPFPPFSA | 0.621 ± 0.0064 |
| FLPPSRFSPLRL | 0.708 ± 0.11 |
| FLSEFFMPSPFP | 0.745 ± 0.097 |
| FLSFIALLPFTS | 0.6748 ± 0.0021 |
| FMACGVNIELRV | 0.643 ± 0.0088 |
| FNCCSYTSPASG | 0.649 ± 0.015 |
| FNEKNKKSTLER | 0.652 ± 0.043 |
| FNIRDKVKRGAL | 0.666 ± 0.008 |
| FNTRDTFLYTCR | 0.789 ± 0.11 |
| FPALPPPLPQPP | 0.585 ± 0.031 |
| FPCAPFLLLDVS | 0.663 ± 0.0029 |
| FPDPTPNLRPPP | 0.636 ± 0.034 |
| FPFFLPMASLFC | 0.559 ± 0.018 |
| FPFWRLYNLELL | 0.492 ± 0.022 |
| FPGLFLFVLLPG | 0.505 ± 0.013 |
| FPGVGARAGVGV | 0.697 ± 0.027 |
| FPHPPPGPRALH | 0.691 ± 0.16 |
| FPLSLCPHRPSL | 0.716 ± 0.034 |
| FPMHFRVRCRPV | 0.62 ± 0.045 |
| FPPPLPPRLPPP | 0.702 ± 0.0061 |

| Sequence | protein stability index |
| --- | --- |
| FPPPPPPLTVLP | 0.728 ± 0.054 |
| FPPPPTHPASSP | 0.691 ± 0.027 |
| FPRHPPPFPRPT | 0.681 ± 0.031 |
| FPVLFSCGYFPL | 0.792 ± 0.04 |
| FPWISPCCFTFP | 0.64 ± 0.042 |
| FPYLLCPLFPWP | 0.665 ± 0.015 |
| FQGKRTKQEGVK | 0.692 ± 0.071 |
| FRASLPRVPFSS | 0.695 ± 0.11 |
| FRDVRFSSRVPF | 0.786 ± 0.07 |
| FRGATRPHSGRS | 0.676 ± 0.048 |
| FRIFGFLVCPIM | 0.6257 ± 0.0038 |
| FRLLFSFFWGYV | 0.595 ± 0.033 |
| FRLLLLKIKSEQ | 0.619 ± 0.034 |
| FRMLSRMKEILD | 0.634 ± 0.052 |
| FRRARRLRWFGG | 0.637 ± 0.03 |
| FRRLVTGVLSIF | 0.559 ± 0.028 |
| FRRWHPPFFLFP | 0.713 ± 0.04 |
| FRWLLVAGGWGE | 0.486 ± 0.024 |
| FRYRLACRPIYQ | 0.616 ± 0.038 |
| FSAFWLACFFGV | 0.717 ± 0.062 |
| FSEKLLRSSVYR | 0.639 ± 0.19 |
| FSFNGMTRNCLR | 0.715 ± 0.014 |
| FSGGCSVHGLIS | 0.612 ± 0.071 |
| FSGSSFNGLCSF | 0.701 ± 0.018 |
| FSLHTSLLPSVP | 0.787 ± 0.14 |
